According to patent US11660340B2, “Combination therapy using T cell redirection antigen binding molecule against cell having immunosuppressing function” (CHUGAI SEIYAKU KABUSHIKI KAISHA, priority 2015, dated 2023):

T1: mFcgRI (Mus musculus, UniProt P26151)
T1 sequence (P26151 25-404): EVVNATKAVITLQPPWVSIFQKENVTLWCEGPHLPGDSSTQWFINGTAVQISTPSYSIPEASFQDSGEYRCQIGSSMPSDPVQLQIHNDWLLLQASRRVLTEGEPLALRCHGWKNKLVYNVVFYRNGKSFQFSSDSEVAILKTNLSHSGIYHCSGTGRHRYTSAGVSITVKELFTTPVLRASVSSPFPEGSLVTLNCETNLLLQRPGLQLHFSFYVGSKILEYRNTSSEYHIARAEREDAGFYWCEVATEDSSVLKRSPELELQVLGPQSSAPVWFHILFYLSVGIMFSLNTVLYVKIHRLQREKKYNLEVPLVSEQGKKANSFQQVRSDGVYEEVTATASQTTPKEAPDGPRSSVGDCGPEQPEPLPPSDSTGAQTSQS

T2: mFcgRII (Mus musculus, UniProt P08101)
T2 sequence (P08101 30-330): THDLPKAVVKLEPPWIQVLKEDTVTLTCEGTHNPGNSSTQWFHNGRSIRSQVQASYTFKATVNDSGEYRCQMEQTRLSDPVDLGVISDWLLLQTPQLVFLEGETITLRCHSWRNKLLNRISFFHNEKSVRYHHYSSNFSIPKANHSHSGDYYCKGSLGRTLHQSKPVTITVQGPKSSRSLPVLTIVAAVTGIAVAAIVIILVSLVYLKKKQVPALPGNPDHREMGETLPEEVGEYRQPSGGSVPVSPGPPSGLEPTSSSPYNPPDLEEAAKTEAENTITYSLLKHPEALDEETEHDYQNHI

T3: mFcgRIII (Mus musculus, UniProt P08508)
T3 sequence (P08508 31-261): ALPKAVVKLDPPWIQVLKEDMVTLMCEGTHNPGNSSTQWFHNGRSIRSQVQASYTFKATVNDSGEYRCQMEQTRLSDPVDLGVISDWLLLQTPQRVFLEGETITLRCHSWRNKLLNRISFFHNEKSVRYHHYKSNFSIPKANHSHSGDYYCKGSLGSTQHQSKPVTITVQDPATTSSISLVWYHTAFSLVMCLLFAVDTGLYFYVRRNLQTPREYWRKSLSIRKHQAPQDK

T4: mFcgRIV (Mus musculus, UniProt A0A0B4J1G0)
T4 sequence (A0A0B4J1G0 21-249): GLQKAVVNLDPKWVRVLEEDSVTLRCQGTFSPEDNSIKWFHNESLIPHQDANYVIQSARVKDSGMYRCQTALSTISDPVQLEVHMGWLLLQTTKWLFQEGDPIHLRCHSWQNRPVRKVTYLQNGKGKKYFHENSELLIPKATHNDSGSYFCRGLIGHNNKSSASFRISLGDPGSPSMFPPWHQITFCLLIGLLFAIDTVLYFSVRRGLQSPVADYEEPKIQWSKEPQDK


Columns and labels:
CT26.WT cells = experiment: Combined use of mCTLA4/mCD3 and gemcitabine, CT26.WT cell-transplanted model; format: in vivo; conditions: final measurement point; mCTLA4/mCD3 25 μg/mouse day 9, gemcitabine 120 mg/kg day 8, tail vein; n=5; FIG. 19
Experimental: BALB/cA mice and C57BL/6N mice were purchased from Charles River Laboratories Japan, Inc. The CT26.WT cells or the CT26/hGPC3 cells were transplanted subcutaneously to BALB/cA mice, and the LL/2 (LLC1) cells or the LLC1/hGPC3 cells were transplanted subcutaneously to C57BL/6N mice. Models were established when the average volume of the transplanted tumors reached approximately 100 mm^3 to 200 mm^3.
The volume of the transplanted tumor was calculated using the following equation: Tumor volume (mm^3)=major axis (mm)×minor axis (mm)×minor axis (mm)/2
As the pharmaceutical agents to be administered for the combined use test, the anti-mouse CTLA4/anti-mouse CD3 bispecific monoclonal antibody (mCTLA4/mCD3) was prepared at 0.125 mg/mL in PBS (−), and a pyrimidine analog (antimetabolite), gemcitabine (Gemzar: Eli Lilly Japan) was prepared at 12 mg/mL in physiological saline solution (Otsuka Pharmaceutical).
To evaluate the effects of combined use of the anti-mouse CTLA4/anti-mouse CD3 bispecific monoclonal antibody (mCTLA4/mCD3) and gemcitabine, the CT26.WT cell-transplanted model was used and given through the tail vein gemcitabine at 120 mg/kg eight days after transplantation and […] at 25 μg/mouse nine days after transplantation.
Antitumor effects were evaluated from the tumor volumes calculated using the equation shown in (2) of Example 1. […]

mFcgRI = biological target: T1, mFcgRI; experiment: Biacore T200 binding of anti-mouse CTLA4 antibody to mouse FcgR; conditions: 1:1 binding RI = 0, 25° C., pH7.4
Experimental: (§1) Anti-mouse CTLA4 antibody hUH02hUL01-mFa55 and control antibody hUH02hUL01-mIgG2a (the heavy chain variable region UH02 is SEQ ID NO: 28, the light chain variable region UL01 is SEQ ID NO: 29, the heavy chain constant region mIgG2a is SEQ ID NO: 32, and the light chain constant region mk1 is SEQ ID NO: 31) purified and prepared by the method of Reference Example 2-1 were analyzed for their antigen-antibody reactions with various mouse FcgRs (mFcgRI, II, III, and IV) using Biacore™ T200 (GE Healthcare). The running buffer used was 20 mmol/L ACES, 150 mmol/L NaCl, 0.05% (w/v) Tween®20 at pH7.4, and measurements were taken at 25° C. Protein A/G was immobilized onto a Sensor Chip CM7 by amine coupling. hUH02hUL01-mFa55 was captured onto the sensorchip, and then FcgR was allowed to interact as an analyte for 120 seconds, and change in the bound amount was observed. The running buffer was used for dilution of hUH02hUL01-mFa55. The measurement results were analyzed by curve fitting using the Biacore™ T200 Evaluation Software (GE Healthcare) to calculate the association rate constants ka (l/Ms) and the dissociation rate constants kd (l/s). From those values, the dissociation constants KD (M) were determined.

mFcgRII = biological target: T2, mFcgRII; experiment: as above; conditions: 1:1 binding RI = 0, 25° C., pH7.4
Experimental: as §1

mFcgRIII = biological target: T3, mFcgRIII; experiment: as above; conditions: 1.1 binding RI = 0, 25° C., pH7.4
Experimental: as §1

mFcgRIV = biological target: T4, mFcgRIV; experiment: as above; conditions: 1:1 binding RI = 0, 25° C., pH7.4
Experimental: as §1

[1] = system: mouse CTLA4-expressing cells (CHO/mouse CTLA4 cells); experiment: ADCC activity, chromium-release assay with mFcgR4-NK92 effector cells; format: cell-based; conditions: antibody 0, 0.04, 0.4, 4, 40 μg/ml, FIG. 5
Description: Whether anti-mouse CTLA4 antibody hUH02hUL01-mFa55 purified and prepared by the method of Reference Example 2-1 exerts ADCC activity on mouse CTLA4-expressing cells (mouse CTLA4-expressing cells were produced by a method known to those skilled in the art by introducing the full length mouse CTLA4 gene into CHO cells) was examined according to the method of Reference Example 11.
Regarding anti-mouse CTLA4 antibodies, antibody concentration-dependent ADCC activities of test antibodies were measured, using the mouse FcgR4-expressing human NK cell line NK-92 (hereinafter referred to as mFcgR4-NK92) as effector cells by following the method described below.
After washing mFcgR4-NK92 with RPMI-1640 (nacalai tesque) containing 10% FBS (hereinafter referred to as 10% FBS/RPMI), the cells were suspended in 10% FBS/RPMI at a cell density of 4×10^5 cells/ml. […]
The ADCC activities were evaluated from the specific chromium release rate according to the chromium release method. […] The radioactivity of 100 μl of culture supernatant in each well of the plate was measured using a gamma counter. The specific chromium release rate was determined based on the following equation. […] The examinations were performed in duplicate and the mean value for the specific chromium release rate (%) of the test antibody was calculated.

| Molecule | tumor volume vs. the PBS-administered group (Tukey multiple comparison test) (CT26.WT cells) | ka (mFcgRI) [M⁻¹ s⁻¹] | kd (mFcgRI) [s⁻¹] | ka (mFcgRII) [M⁻¹ s⁻¹] | kd (mFcgRII) [s⁻¹] | ka (mFcgRIII) [M⁻¹ s⁻¹] | kd (mFcgRIII) [s⁻¹] | ka (mFcgRIV) [M⁻¹ s⁻¹] | kd (mFcgRIV) [s⁻¹] | ADCC activity (specific chromium release rate) [1] |
| --- | --- | --- | --- | --- | --- | --- | --- | --- | --- | --- |
| Nc1ccn([C@@H]2O[C@H](CO)[C@@H](O)C2(F)F)c(=O)n1 [gemcitabine] | significant differences (p<0.05) | – | – | – | – | – | – | – | – | – |
| hUH02hUL01-mFa55: anti-mouse CTLA4 antibody, mouse IgG2a/kappa, constant region mFa55 modified to enhance binding to mouse FcγR (ADCC-enhanced) (antibody) heavy: QVQLQESGPGLVKPSETLSLTCTVSGYSISSGYGWNWIRQPPGKGLEWIGFIYYEGSTYYNPSIKSRISITRDTSKNQFFLQVNSVTTEDTATYYCARQTGYFDYWGQGTLVTVSSAKTTAPSVYPLAPVCGDTTGSSVTLGCLVKGYFPEPVTLTWNSGSLSSGVHTFPAVLQSDLYTLSSSVTVTSSTWPSQSITCNVAHPASSTKVDKKIEPRGPTIKPCPPCKCPAPNLLGGPDVFIFPPKIKDVLMISLSPIVTCVVVDVSEDDPDVQISWFVNNVEVHTAQTQTHREDYNSTLRVVSALPIQHQDWMSGKEFKCKVNNKDLPAPIERTISKPKGSVRAPQVYVLPPPEEEMTKKQVTLTCMVTDFMPEDIYVEWTNNGKTELNYKNTEPVLDSDGSYFMYSKLRVEKKNWVERNSYSCSVVHEGLHNHHTTKSFSRTPGK light: DIVMTQSPDSLAVSLGERATINCKSSQSLFNSNAKTNYLNWYQQKPGQPPKLLIYYASTRHTGVPDRFSGSGSGTDFTLTISSLQAEDVAVYYCQQWYDYPYTFGAGTKVEIKRADAAPTVSIFPPSSEQLTSGGASVVCFLNNFYPKDINVKWKIDGSERQNGVLNSWTDQDSKDSTYSMSSTLTLTKDEYERHNSYTCEATHKTSTSPIVKSFNRNEC | – | 1.2e+06 | 0.0031 | 2.1e+06 | 0.76 | 2.4e+06 | 0.62 | 1.5e+06 | 0.0028 | ADCC activity in an antibody concentration-dependent manner |
